Data on 29 molecules can be found in patent US20210261648A1 (published 2021).

For assay [1], the target named is T1, FcγRIIb extracellular domain with C-terminal His tag (human, UniProt P31994 43-217).
T1 construct: extracellular domain; For crystals it was expressed with kifunensine and trimmed with Endo F1; also called FcgRIIb; FcγRIIb extracellular region
T1 sequence (looked up): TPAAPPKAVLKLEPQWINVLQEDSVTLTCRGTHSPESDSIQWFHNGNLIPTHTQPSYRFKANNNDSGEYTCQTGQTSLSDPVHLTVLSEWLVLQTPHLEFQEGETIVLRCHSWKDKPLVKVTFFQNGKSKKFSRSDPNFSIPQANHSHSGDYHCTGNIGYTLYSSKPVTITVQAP
Nature of the assay: SPR (Biacore). On the technique in general: In SPR one partner is held on a chip, and binding of the other changes the refractive index at the surface.

Assay [2] addresses T2, FcγRIIb (human, UniProt P31994 43-217).
T2 construct: extracellular domain; also called FcgRIIb; CD32B
T2 sequence (looked up): T1 sequence (looked up)
Nature of the assay: SPR (Biacore); parent = IL6R-B3/IL6R-L.

Assay [3] concerns the target T3, FcγRIIa type R (human, UniProt P12318 34-217).
T3 chain: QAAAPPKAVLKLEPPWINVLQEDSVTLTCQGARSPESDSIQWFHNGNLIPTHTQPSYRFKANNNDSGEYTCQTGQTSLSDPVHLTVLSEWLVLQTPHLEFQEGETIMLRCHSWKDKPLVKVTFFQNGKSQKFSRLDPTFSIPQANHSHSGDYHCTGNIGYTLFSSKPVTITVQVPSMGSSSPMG
As to the kind of experiment: SPR (Biacore); parent = IL6R-B3/IL6R-L.

Assay [4] concerns the target T2, FcγRIIb. Nature of the assay: SPR (Biacore), captured antibody, soluble FcγR.
In assay [5] the target is T3, FcγRIIa type R. Nature of the assay: SPR (Biacore), captured antibody, soluble FcγR.
The target of assay [6] is T4, FcγRIIa type H (human, UniProt P12318 34-217).
T4 construct: extracellular domain; also called FcγRIIaH; FcgRIIaH
T4 sequence (looked up): T3 chain with R134H
Nature of the assay: SPR (Biacore), captured antibody, soluble FcγR.

For assay [7], the target named is T5, FcγRIa (human, UniProt P12314 16-292).
T5 construct: Whole entry named; also called FcgRIa; CD64A
As to the kind of experiment: SPR (Biacore), captured antibody, soluble FcγR.

Residue numbers refer to the chain shown, from its start. Numbers in names are those of the source.

T5 sequence (P12314 16-292): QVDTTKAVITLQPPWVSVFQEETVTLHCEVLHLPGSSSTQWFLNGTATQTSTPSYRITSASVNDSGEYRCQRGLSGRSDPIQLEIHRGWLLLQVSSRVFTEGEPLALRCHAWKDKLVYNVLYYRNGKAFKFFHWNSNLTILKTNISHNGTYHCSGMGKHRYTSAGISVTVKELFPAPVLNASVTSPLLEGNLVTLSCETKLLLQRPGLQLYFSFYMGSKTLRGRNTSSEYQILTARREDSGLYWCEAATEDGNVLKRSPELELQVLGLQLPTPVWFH

B1: IL6R-BP541/IL6R-L (antibody, human IgG1, kappa)
heavy: QVQLQESGPGLVKPSETLSLTCAVSGHSISHDHAWSWVRQPPGEGLEWIGFISYSGITNYNPSLQGRVTISRDNSKNTLYLQMNSLRAEDTAVYYCARSLARTTAMDYWGEGTLVTVSSASTKGPSVFPLAPSSKSTSGGTAALGCLVKDYFPEPVTVSWNSGALTSGVHTFPAVLQSSGLYSLSSVVTVPSSSLGTQTYICNVNHKPSNTKVDKKVEPKSCDKTHTCPPCPAPDLLGDDSVFLFPPKPKDTLMISRTPEVTCVVVDVSDEDGEVQFNWYVDGVEVHNAKTKPREEQDNSTYRVVSVLTVLHQDWLNGKEYKCKVSNKALPRPIEKTISKAKGQPREPQVYTLPPSRDELTKNQVSLTCLVKGFYPSDIAVEWESNGQPENNYKTTPPVLDSDGSFFLYSKLTVDKSRWQQGNVFSCSVMHEALHNHYTQESLSLSP
light: not shown
Regarding B1, the binding result in assay [1] is recorded as “binds”.

B2: IL6R-AP002/IL6R-BP256/IL6R-L (antibody, human IgG1, kappa)
heavy 1: B1 heavy with Q276K, D298Y, D358K, H437R, E441K
heavy 2: B1 heavy with S241D, Q276K, D298Y
light: not shown
notes: Heterodimer: S239D in one chain only
As to B2, the binding result in assay [1] is “binds”.

B3: IL6R-BP497/IL6R-L (antibody, human IgG1, kappa)
heavy: B1 heavy with V266I, S269A, D270E, Q276K, D298Y, A329G
light: not shown
notes: Alterations in EU numbering, introduced into IL6R-B3
The Kd is the constant that tells how readily two partners part at equilibrium. B3: the “KD(IIb) of the parent polypeptide/KD(IIb) of the altered polypeptide” value (shortened to “KD(IIb)”) in assay [2] stood at 764 fold. Besides, in assay [3], the “KD(IIaR) of the parent polypeptide/KD(IIaR) of the altered polypeptide” value (shortened to “KD(IIaR)”) turned out to be 12.9 fold. Besides, the Kd in assay [4] is 4.1 nM; in assay [5], 85 nM; in assay [6] it was 960 nM; in assay [7] it was 2.1 nM.

B4: IL6R-BP559/IL6R-L (antibody, human IgG1, kappa)
heavy: B1 heavy with D235E, D239G, V266I, S269A, D270E, E274D, Q276K, R332A
light: not shown
Consider B4, for which the “binding relative to IL6R-B3/IL6R-L” value in assay [1] is at least 100 times.

B5: variant resulting from adding S267E to IL6R-BP267/IL6R-L (antibody, human IgG1, kappa)
heavy: B1 heavy with S269E, D270E, Q276K, D298Y, R332A
light: not shown
Take B5: the binding result in assay [1] is “binds”.

B6: IL6R-BP488/IL6R-L (antibody, human IgG1, kappa)
heavy: B1 heavy with V266I, S269A, D270E, Q276K
light: not shown
notes: as for B3
In the case of B6, the “KD(IIb)” value in assay [2] worked out at 1680 fold. Moreover, in assay [3], the “KD(IIaR)” value is 14.8 fold. The Kd in assay [4] was 1.9 nM; in assay [5], 74 nM; in assay [6], 1600 nM; in assay [7] it was 2.2 nM.

B7: IL6R-BP554/IL6R-L (antibody, human IgG1, kappa)
heavy: B1 heavy with D235E, V266I, S269A, D270E, E274D, Q276K, D298Y
light: not shown
notes: as for B3
On to B7, for which the Kd was determined as 150 nM in assay [5], 2300 nM in assay [6] and 8 nM in assay [7].

B8: IL6R-BP544/IL6R-L (antibody, human IgG1, kappa)
heavy: B1 heavy with Q276K, R357Q
light: not shown
Take B8: in assay [1], the binding result is on record as “binds”.

B9: variant resulting from adding V266M to IL6R-BP267/IL6R-L (antibody, human IgG1, kappa)
heavy: B1 heavy with V268M, D270E, Q276K, D298Y, R332A
light: not shown
As for B9, the binding result in assay [1] is “binds”.

B10: IL6R-AP002/IL6R-BP257/IL6R-L (antibody, human IgG1, kappa)
heavy 1: B1 heavy with Q276K, D298Y, D358K, H437R, E441K
heavy 2: B1 heavy with S241E, Q276K, D298Y
light: not shown
notes: Heterodimer: S239E in one chain only
Regarding B10, in assay [1], the binding result is on record as “binds”.

B11: IL6R-BP496/IL6R-L (antibody, human IgG1, kappa)
heavy: B1 heavy with V266I, S269A, D270E, Q276K, R332A
light: not shown
notes: as for B3
As to B11, the “KD(IIb)” value in assay [2] turned out to be 168 fold. The “KD(IIaR)” value in assay [3] is 2.3 fold. Moreover, the Kd worked out at 18 nM in assay [4], 470 nM in assay [5], 3700 nM in assay [6] and 1.2 nM in assay [7].

B12: IL6R-BP499/IL6R-L (antibody, human IgG1, kappa)
heavy: B1 heavy with V266I, S269A, D270E, Q276K, P398L
light: not shown
notes: as for B3
For B12, in assay [2], the “KD(IIb)” value was 2120 fold. In addition, in assay [3], the “KD(IIaR)” value came out at 22.3 fold. The Kd was determined as 1.5 nM in assay [4], 49 nM in assay [5], 1000 nM in assay [6] and 1.2 nM in assay [7].

B13: IL6R-BP438/IL6R-L (antibody, human IgG1, kappa)
heavy: B1 heavy with S269A, D270E, Q276K, D298Y, I334T
light: not shown
notes: as for B3
Consider B13, for which the Kd in assay [5] was determined as 180 nM; in assay [6], 1600 nM.

B14: IL6R-BP489/IL6R-L (antibody, human IgG1, kappa)
heavy: B1 heavy with V266I, S269A, D270E, Q276K, P398M
light: not shown
notes: as for B3
With B14, the “KD(IIb)” value in assay [2] is 3100 fold. Also, the “KD(IIaR)” value in assay [3] came out at 25.7 fold. Also, the Kd in assay [4] came out at 1 nM; in assay [5], 43 nM; in assay [6] it was 870 nM; in assay [7], 1.3 nM.

B15: IL6R-AP009/IL6R-BP260/IL6R-L (antibody, human IgG1, kappa)
heavy 1: B1 heavy with Q276K, D358K, H437R, E441K
heavy 2: B1 heavy with S241E, Q276K
light: not shown
notes: as for B10
As to B15, the binding result in assay [1] is given as “binds”.

B16: IL6R-BP487/IL6R-L (antibody, human IgG1, kappa)
heavy: B1 heavy with V266I, S269A, D270E, Q276K, D298Y, P398M
light: not shown
notes: as for B3
Take B16: the “KD(IIb)” value in assay [2] was 2700 fold. Moreover, the “KD(IIaR)” value in assay [3] was determined as 28.3 fold. Also, the Kd in assay [4] was found to be 1.2 nM; in assay [5], 39 nM; in assay [6], 840 nM; in assay [7] it was 1.2 nM.

B17: variant resulting from adding V264I to IL6R-BP267/IL6R-L (antibody, human IgG1, kappa)
heavy: B1 heavy with V266I, D270E, Q276K, D298Y, R332A
light: not shown
On to B17, for which the binding result in assay [1] is “binds”.

B18: variant resulting from adding S267G to IL6R-BP267/IL6R-L (antibody, human IgG1, kappa)
heavy: B1 heavy with S269G, D270E, Q276K, D298Y, R332A
light: not shown
Turning to B18, the binding result in assay [1] is “binds”.

B19: IL6R-BP498/IL6R-L (antibody, human IgG1, kappa)
heavy: B1 heavy with V266I, S269A, D270E, Q276K, D298Y, P398L
light: not shown
notes: as for B3
For the molecule B19, the “KD(IIb)” value in assay [2] was determined as 1880 fold. Also, the “KD(IIaR)” value in assay [3] was found to be 21.7 fold. The Kd in assay [4] is 1.7 nM; in assay [5], 51 nM; in assay [6], 930 nM; in assay [7], 1.3 nM.

B20: variant resulting from adding S267A to IL6R-BP267/IL6R-L (antibody, human IgG1, kappa)
heavy: B1 heavy with S269A, D270E, Q276K, D298Y, R332A
light: not shown
For B20, the binding result in assay [1] is recorded as “binds”.

B21: IL6R-BP491/IL6R-L (antibody, human IgG1, kappa)
heavy: B1 heavy with D235E, V266I, S269A, D270E, Q276K
light: not shown
notes: as for B3
For B21, the “KD(IIb)” value in assay [2] came out at 1020 fold. The “KD(IIaR)” value in assay [3] came to 9.3 fold. Also, the Kd in assay [4] was 3 nM; in assay [5] it was 120 nM; in assay [6], 2200 nM; in assay [7], 5.3 nM.

B22: variant resulting from adding E269D to IL6R-BP267/IL6R-L (antibody, human IgG1, kappa)
heavy: B1 heavy with D270E, E271D, Q276K, D298Y, R332A
light: not shown
B22: the binding result in assay [1] is “binds”.

B23: IL6R-BP545/IL6R-L (antibody, human IgG1, kappa)
heavy: B1 heavy with Q276K, D358E
light: not shown
Turning to B23, the binding result in assay [1] is recorded as “binds”.

B24: IL6R-AP009/IL6R-BP259/IL6R-L (antibody, human IgG1, kappa)
heavy 1: B1 heavy with Q276K, D358K, H437R, E441K
heavy 2: B1 heavy with S241D, Q276K
light: not shown
notes: as for B2
As to B24, the binding result in assay [1] is recorded as “binds”.

B25: IL6R-BP567/IL6R-L (antibody, human IgG1, kappa)
heavy: B1 heavy with D239G, V266I, S269A, D270E, Q276K, R332A
light: not shown
As for B25, in assay [1], the “binding relative to IL6R-B3/IL6R-L” value is at least 100 times.

B26: variant resulting from adding V266F to IL6R-BP267/IL6R-L (antibody, human IgG1, kappa)
heavy: B1 heavy with V268F, D270E, Q276K, D298Y, R332A
light: not shown
In the case of B26, the binding result in assay [1] is “binds”.

B27: IL6R-BP546/IL6R-L (antibody, human IgG1, kappa)
heavy: B1 heavy with Q276K, L360M
light: not shown
Take B27: the binding result in assay [1] was “binds”.

B28: IL6R-BP502/IL6R-L (antibody, human IgG1, kappa)
heavy: B1 heavy with V266I, S269A, D270E, Q276K, A329G
light: not shown
notes: as for B3
For B28, the “KD(IIb)” value in assay [2] amounted to 840 fold. The “KD(IIaR)” value in assay [3] turned out to be 10.1 fold. In addition, the Kd in assay [4] amounted to 3.7 nM; in assay [5], 110 nM; in assay [6] it was 1300 nM; in assay [7] it was 2.1 nM.

B29: IL6R-BP558/IL6R-L (antibody, human IgG1, kappa)
heavy: B1 heavy with D235E, V266I, S269G, D270E, E274D, Q276K, D298Y
light: not shown
notes: as for B3
With B29, the values for the Kd in assay [4], in assay [5] and in assay [6] were 9 nM, 330 nM and 4900 nM, respectively.
